According to the DeepSol protein solubility set:

Experiment: soluble on expression in E. coli; label from the status in PepcDB or PDB records

Soluble on expression in E. coli, not soluble:
MGSDKIHHHHHHMALRSMDELRQQAQGALSLNIAFIGVVNGLFSTLHALGNADSAALAAATGMDTGYVLRWCDAAYAFGWLELTDNEQWRLSEDGDRMRPEAENSRVGVAVGAVLSAHMAERAAGLMRTGERPGEKVLAERETILPWFGLMLENNFRKTFEEKICPTVPIFAEVDARGGLAVDLGCGNGWYLRALAARCGHLHGLGLDGFAENIRQATEKAQSEGIADRLHFDEGDIHQFSLPEPADLIAMNRSLHHVWENRGEIFQRLHASLKPEGAIVIWEPAWPDDHRVLREPPLRGMAFQNLTEHVQGNHFLHPEEIATALSEAGLHPEIFPFGSDVVVVGRV
MGSDKIHHHHHHMANNYMKRKDRIILTAVEIIDQLGVQGLTIREIASRQEISEAAIYRHFANKSEILLGTIDYFSSYDALLFRTIESQNMKAWEGITFLLASYTEYYENYPAITAVTFTQEAFQLEPEARERMENVIDNRLRFIKQMVIKGQKEGEFTRDICSEGIVDIIFGTVQFIILRWRAKNYDFALKEHVLSTLSILIEAFSTVKLENRFAWGGVFNQEVSSSTFDSVLTRPGLFLEKGKDQVNEKSEG
MGSDKIHHHHHHMANSNMQATDAVAQDTASASGEFDALLNQAFRPKTTQAAKAVEAAVQTLAQQALANTITVSDDAYKSISAIIAQIDFKLTEQIKLILQHPDWQKLESSWRGMEHLVYNTETDEKLKIRFMNLSKDELRRNMKRYKGIAWDQSPMFKKLYEAEYGQLGGEPYGCIIADYYFDHTPPDVDLLGSIAKVAASAHAPFIAGASPSVLQMDSWQELANPRDLTKIVTQNLEYAPWNSLRASEDSRYIGLTMPRFLARLPYGAKTNPVDEFDFEEDADGSDHTKYVWSNAAYAMGVNINRSFKHYGWCTLIRGVESGGAVENLPCHTFPTDDGGVDMKCPTEIAISDRREAELAKNGFIPLIHRKNSDYAAFIGAQSLQKPQEYYDPDATANANLSARLPYLFACSRFAHFLKCIVRDKIGSFKEREDMQRWLNEWIMNYVDADPVNSSQETKARRPLAAAEVVVEEVEGNPGYYDAKFFLRPHFQLEGLTGSLRLVTKLPSVKQGNA
MGSDKIHHHHHHMAPNYMTEKWREDEEYLSYVEDLLATEEVQKLAEYTQHMHSTRLEHSISVSYHSYKLAKRWNGNARATARAGLLHDLFYYDWRTTKFDEGSHAYVHPRIAAKNAEKITELSDLERDIIIKHMWGATIAPPKYKESYIVTFVDKYCAVKEAALPMTTAMKTKWRQYFGQQSI
MGSDKIHHHHHHMAPYPYKVQTTVPELQYENFDGAKFGYMFWPVQNGTNEVRGRVLLIHGFGEYTKIQFRLMDHLSLNGYESFTFDQRGAGVTSPGRSKGVTDEYHVFNDLEHFVEKNLSECKAKGIPLFMWGHSMGGGICLNYACQGKHKNEISGYIGSGPLIILHPHTMYNKPTQIIAPLLAKFLPRVRIDTGLDLKGITSDKAYRAFLGSDPMSVPLYGSFRQIHDFMQRGAKLYKNENNYIQKNFAKDKPVIIMHGQDDTINDPKGSEKFIQDCPSADKELKLYPGARHSIFSLETDKVFNTVFNDMKQWLDKHTTTEAKP
MGSDKIHHHHHHMAQIIAVHSFRGGTGKSNLIANMAATMALQGQRVGIIDTDIQSPGIHVIFGINENKMERTLNDYLWGYCNIKDAAYDVTEALAIEQGNTSTVKGSLHLVPCSIKASEIARVLREGYDVVRLNDGFQEFIRSLKLDYLLIDTHPGLNEETLLSIGISNVLVILLRPDHQDFQGTAVTVDVARKLKVPKMLLVINKVLPSLNFLDLQQQVEKIYNAPVVGILPLSEDMVQLASKGLFSLRYPQHPISQTIKGITNQIASLVVSH
MGSDKIHHHHHHMAQQDRLQQMREWIKTTPEISLDQLMGEYRISRDTARRDLIQLEREGKIIRVKNGLIRVGTNTTIQYDRRTEQPEKNRIAKHAVRYVQPDQTIILDAASTVARMTVHLPAQPIQIITNALAVVEQLEARPEIDLYVTGGKWDRHARSLVGIKTADDILNYQVDRVFLGACGLTEQGVFAENLEEAIVKKAMIRSSAEVIVLADHTKFEKRFLHKVCDLDQIDILITDERPTEQWQKWLQEADILLETAEEE
